Biological target: T1, streptavidin/gold (10 nm-diameter; Electron Microscopy Sciences) (UniProt P22629 37-163, limits assumed, conjugated to 10 nm gold particles)
T1 construct: Detection reagent; also called avidin-conjugated gold particles; gold particles
Assay: immunogold electron microscopy control, fibrils with recruited AL1κ and no mAb added
Description: Immunogold electron microscopy was used to investigate the binding sites of AL1κ LC on rVλ6Wil fibrils (FIG. 6A and FIG. 6B). The distribution of AL1κ LC (evidenced by the presence of anti-κ LC mAb-bound 10 nm-diameter gold particles; arrows) was generally at the ends of the rVλ6Wil fibrils and less commonly seen along the length of the fibril (arrowheads; FIG. 6A). A sample of fibrils with AL1κ LC recruited but with no mAb added served as a non-specific binding control. No gold particles were observed associated with the majority of fibrils in this preparation (FIG. 6B).
Twenty-five μg of rVλ6Wil fibrils were mixed with 1 μg […] in 200 μL of tris-buffered saline (TBS) with 0.05% tween-20 (TBST) in a 1.5 mL-volume microcentrifuge tube. The sample was rotated at RT for 24 h before being centrifuged at 20,000×g for 8 min, and the supernatant was discarded. The pellet was washed in 400 μL TBST twice by centrifugation, before the sample was split into two 200 μL-volume samples in TBST. To one sample, 10 μg each of two biotinylated anti-κ mAbs (αLKC8 and 14-6E4) were added; no antibodies were added to the other sample. Both samples were rotated 2 h at RT prior to two washes by centrifugation, as before. The pellets were resuspended in […] TBST with addition of a 1:4 dilution of streptavidin/gold stock solution ([…]; Electron Microscopy Sciences, Hatfield, Pa.). […]

T1 sequence (P22629 37-163 limits assumed): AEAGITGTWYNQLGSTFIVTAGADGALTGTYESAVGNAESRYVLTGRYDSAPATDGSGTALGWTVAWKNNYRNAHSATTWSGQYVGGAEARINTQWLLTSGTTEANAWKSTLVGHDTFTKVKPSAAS

B1: synthetic rVλ6Wil fibrils (other)
VL: NFLLTQPHSVSESPGKTVTISCTRSSGSIANNYVHWYQQRPGSSPTTVIFEDDHRPSGVPDRFSGSVDTSSNSASLTISGLKTEDEADYYCQSYDHNNQVFGGGTKLTVLG
notes: Amyloid fibril polymer of rVλ6Wil monomers; Used in suspension (pulldown), coupled to a CM-5 chip (SPR) or dried onto microplate wells; also called rVλ6Wil synthetic amyloid fibrils; rVλ6Wil fibril seed
- binding result: no binding
